From US20240109955A1

Target: SARS-CoV-2 spike protein, original Wuhan strain (WT) (SARS-CoV-2) (UniProt P0DTC2)
Assay: cell-based or functional assay

A19-46 mAb (antibody), sequence (VH): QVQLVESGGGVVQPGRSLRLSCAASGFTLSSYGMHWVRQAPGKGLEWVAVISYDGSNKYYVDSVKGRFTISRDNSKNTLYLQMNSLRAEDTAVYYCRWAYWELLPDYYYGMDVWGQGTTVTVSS
A19-46 mAb (antibody), sequence (VL): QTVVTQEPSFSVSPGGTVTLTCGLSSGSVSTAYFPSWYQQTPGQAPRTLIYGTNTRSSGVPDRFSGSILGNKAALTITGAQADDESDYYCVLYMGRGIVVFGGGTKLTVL
A19-46.1 (antibody), sequence (VH): as the sequence (VH) above
A19-46.1 (antibody), sequence (VL): as the sequence (VL) above

A19-46 mAb (antibody)
IC50, pseudovirus neutralization: 0.263 nM | IC80, pseudovirus neutralization: 0.778 nM

A19-46.1 (antibody)
IC50, pseudovirus neutralization: 0.263 nM | IC80, pseudovirus neutralization: 0.778 nM

A19-61 mAb (antibody)
IC50, pseudovirus neutralization: 0.172 nM | IC80, pseudovirus neutralization: 0.408 nM

B1-182 mAb (antibody)
IC50, pseudovirus neutralization: 0.0264 nM | IC80, pseudovirus neutralization: 0.0692 nM

B1-182.1 (antibody)
IC50, pseudovirus neutralization: 0.0264 nM | IC80, pseudovirus neutralization: 0.0692 nM
